Like-named read-outs stand apart in the source and are kept apart here.
B1: UHRF1-UBL (residues 1–76) (domain or fragment, human, UniProt Q96T88 1-76, looked up)
chain: MWIQVRTMDGRQTHTVDSLSRLTKVEELRRKIQELFHVEPGLQRLFYRGKQMEDGHTLFDYEVRLNDTIQLLVRQS
B2: UHRF1-UBL L65A (domain or fragment, human, UniProt Q96T88 1-76, looked up)
chain: MWIQVRTMDGRQTHTVDSLSRLTKVEELRRKIQELFHVEPGLQRLFYRGKQMEDGHTLFDYEVRANDTIQLLVRQS
B3: UHRF1-UBL K50R (domain or fragment, human, UniProt Q96T88 1-76, looked up)
chain: MWIQVRTMDGRQTHTVDSLSRLTKVEELRRKIQELFHVEPGLQRLFYRGRQMEDGHTLFDYEVRLNDTIQLLVRQS
B4: UHRF1-UBL F59V (domain or fragment, human, UniProt Q96T88 1-76, looked up)
chain: MWIQVRTMDGRQTHTVDSLSRLTKVEELRRKIQELFHVEPGLQRLFYRGKQMEDGHTLVDYEVRLNDTIQLLVRQS
B5: UHRF2-UBL (residues 1–81) (domain or fragment, UniProt Q96PU4 1-81, looked up)
chain: MWIQVRTIDGSKTCTIEDVSRKATIEELRERVWALFDVRPECQRLFYRGKQLENGYTLFDYDVGLNDIIQLLVRPDPDHLP
B6: UHRF1-UBL W2V (domain or fragment, human, UniProt Q96T88 1-76, looked up)
chain: MVIQVRTMDGRQTHTVDSLSRLTKVEELRRKIQELFHVEPGLQRLFYRGKQMEDGHTLFDYEVRLNDTIQLLVRQS

Experiments:
Ube2D3(C85S) [1] = molecular target: T1, Ube2D3(C85S) (human, UniProt P61077 1-147, C85S); experiment: NMR titration
T1 sequence (P61077 whole entry C85S): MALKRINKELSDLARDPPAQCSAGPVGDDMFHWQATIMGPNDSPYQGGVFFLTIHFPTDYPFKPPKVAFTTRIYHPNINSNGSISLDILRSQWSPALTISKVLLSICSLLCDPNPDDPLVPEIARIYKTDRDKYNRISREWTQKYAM

Ube2D1 = Ube2D1 (human, UniProt P51668 1-147); experiment: ITC
Chain of Ube2D1 (P51668 whole entry): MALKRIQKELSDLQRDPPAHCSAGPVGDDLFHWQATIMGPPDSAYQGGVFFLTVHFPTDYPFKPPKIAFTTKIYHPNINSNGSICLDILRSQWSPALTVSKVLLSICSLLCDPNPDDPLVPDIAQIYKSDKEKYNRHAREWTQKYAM

Ube2D3(C85S) [2] = molecular target: T1, Ube2D3(C85S); experiment: NMR titration; remark: listed apart in the source

| Binder | binding result (Ube2D1) | also measured |
| --- | --- | --- |
| B1 |  | Kd (Ube2D3(C85S) [1]): 15 µM |
| B2 | binds |  |
| B3 | binds |  |
| B4 | binds |  |
| B5 |  | Kd (Ube2D3(C85S) [2]): 215 µM |
| B6 | binds |  |
